Results taken from US20150152192A1 (SAMSUNG ELECTRONICS, published 2015).
Where a chain is given by its changes, count along the chain named.

B1: SAIT-ANG-2-AB-2-E6 (scFv form) (scFv, V domains shown)
VH: EVQLLESGGGLVQTGGSLRLSCAASGFTFSDYAMSWVRQAPGKGLEWVSAIYPDSGNKYYADSVKGRFTISRDNSKNTLYLQMNSLRAEDTAVYYCARHSSDPKVKSGYYDDGMDVWGQGTLVAVSS
VL: QSVLTQPPSASGTPGQRVTISCSGSSSNIGNNAVNWYQQLPGTAPKLLIYADSNRPSGVPDRFSGSKSGTSASLAISGLRSEDEADYYCGSWDYSLSGYVFGGGTKLTVLG
notes: scFv from a phage display library, partly purified from E. coli periplasm on Ni-NTA and detected with anti-HA
B2: SAIT-ANG-2-AB-3-D3 (scFv form) (scFv, V domains shown)
VH: EVQLLESGGGLVQPGGSLRLSCAASGFTFSDYDMSWVRQAPGKGLEWVSGISSDDGNTYYADSVKGRFTISRDNSKNTLYLQMNSLRAEDTAVYYCARPTIDKYTLRGYYSYGMDVWGQGTLVTVSS
VL: B1 VL with S23T, N31S, A33Y, N35S, A51S, S53N, N54K, S91T, Y94D, S97N
notes: scFv from a phage display library
B3: SAIT-ANG-2-AB-4-C11 (scFv form) (scFv, V domains shown)
VH: EVQLLESGGGLVQPGGSLRLSCAASGFTFSDYAMSWVRQAPGKGLEWVSSIYPDDGNTYYADSVKGRFTISRDNSKNTLYLQMNSLRAEDTAVYYCARHTSHHTSIDGYYYYGMDGWGQGTLVTVSS
VL: B1 VL with S23T, A33D, N35S, A51S, N54K
notes: as for B2
B4: SAIT-ANG-2-AB-8-A5 (scFv form) (scFv, V domains shown)
VH: EVQLLESGGGLVQPGGSLRLSCAASGFTFSDYYMSWVRQAPGKGLEWVSGIYPSGGSTYYADSVKGRFTISRDNSKNTLYLQMNSLRAEDTAVYYCARDPSTLTYAGFDYWGQGTLVTVSS
VL: B1 VL with A33Y, N35T, N54H, G90A, S91T
notes: as for B2
B5: SAIT-ANG-2-AB-7-C9 (scFv form) (scFv, V domains shown)
VH: EVQLLESGGGLVQPGGSLRLSCAASGFTFSNYAMSWVRQAPGKGLEWVSAISSGGGNIYYADSVKGRFTISRDNSKNTLYLQMNSLRAEDTAVYYCAKSGIQPSPPSMSSAYAMDVWGQGTLVTVSS
VL: B1 VL with A33D, N35Y, D52N, N54H, S91T
notes: as for B2
B6: SAIT-ANG-2-AB-4-F5 (scFv form) (scFv, V domains shown)
VH: EVQLLESGGGLVQPGGSLRLSCAASGFTFSDYDMSWVRQAPGKGLEWVSSISHGDSNKYYADSVKGRFTISRDNSKNTLYLQMNSLRAEDTAVYYCAKSSGIQESPPTYYYYGMDVWGQGTLVTVSS
VL: B1 VL with N31S
notes: as for B2
B7: SAIT-ANG-2-AB-4-F11 (scFv form) (scFv, V domains shown)
VH: EVQLLESGGGLVQTGGSLRLSCAASGFTFSDYAMSWVRQAPGKGLEWVSSIYPDDGNTYYADSVKGRFTISRDNSKNTLYLQMNSLRAEDTAVYYCAKHPVRLNLHPMYYYYGMDVWGQGTLVTVSS
VL: B1 VL with S23T, N35S, A51S, N54Q, G90A, S91T, G98A
notes: as for B2

Columns and labels:
[1] = biological target: T1, mouse Ang2 (Accession # NP-031452) (R&D Systems) (mouse, UniProt O35608 19-496, limits assumed); experiment: ELISA, antigen coated, scFv, anti-HA-HRP; 50% binding concentration (Kd)
T1 construct: Bought protein; also called mAng2
T1 sequence (looked up): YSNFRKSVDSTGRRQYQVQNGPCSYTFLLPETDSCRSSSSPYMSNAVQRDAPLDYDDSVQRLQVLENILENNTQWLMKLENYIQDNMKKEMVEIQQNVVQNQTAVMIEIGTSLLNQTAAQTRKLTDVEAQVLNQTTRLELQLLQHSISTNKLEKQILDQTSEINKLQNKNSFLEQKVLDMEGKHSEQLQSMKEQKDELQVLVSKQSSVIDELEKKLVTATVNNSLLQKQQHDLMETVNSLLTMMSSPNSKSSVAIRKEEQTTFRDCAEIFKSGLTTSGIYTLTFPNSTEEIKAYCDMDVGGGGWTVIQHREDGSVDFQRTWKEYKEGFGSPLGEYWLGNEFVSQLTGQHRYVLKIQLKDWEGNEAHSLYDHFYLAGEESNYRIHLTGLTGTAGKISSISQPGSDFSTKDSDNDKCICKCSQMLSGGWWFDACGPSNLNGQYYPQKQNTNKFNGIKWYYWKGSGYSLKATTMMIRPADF
Method: To measure binding of the antibodies prepared above with each antigen, ELISA was performed. A 96-well MaxiSorp™ flat-bottom plate (Nunc) was coated with 5˜20 μg/ml of human Ang2 and mouse Ang2 (Accession # NP_{—}031452) (both, R&D Systems). After that, the plate was washed five times with 0.05% (v/v) Tween-20-containing PBS and then blocked with 1% (v/v) BSA-containing PBS at a room temperature for 2 hours. The anti-Ang2 antibodies in their scFv forms prepared above were added to each well of the plate which was then allowed to react at a room temperature for 2 hours.
Thereafter, the plate was washed five times with 0.05% Tween-20-containing PBS and then, an HRP-conjugated anti-HA (HA-probe Antibody (F-7) HRP conjugated) antibody (Santacruz) diluted in 1% (v/v) BSA-containing PBS at 1:1,000 ratio (v/v) was added in the amount of 50 μl to each well to react at a room temperature for 1 hour, followed by washing five times with 0.1% (v/v) Tween-20-containing PBS. Finally, 100 μl of TMB substrate (cell signal) was added to each well of the plate to induce color development at a room temperature for 3 min and then, the reaction was ceased by the addition of 50 μl of 5N H₂SO₄ solution and OD450 values were measured on a plate reader (Molecular Devices).

FLAG-Tagged hAng2 = biological target: T2, FLAG-Tagged hAng2 (human, UniProt O15123 19-496, limits assumed); experiment: competitive ELISA: hTie2-Fc coated, 400 ng/ml FLAG-hAng2 plus scFv, anti-FLAG-HRP
T2 construct: also called FLAG-Ang2; non-mutated Ang2
T2 sequence: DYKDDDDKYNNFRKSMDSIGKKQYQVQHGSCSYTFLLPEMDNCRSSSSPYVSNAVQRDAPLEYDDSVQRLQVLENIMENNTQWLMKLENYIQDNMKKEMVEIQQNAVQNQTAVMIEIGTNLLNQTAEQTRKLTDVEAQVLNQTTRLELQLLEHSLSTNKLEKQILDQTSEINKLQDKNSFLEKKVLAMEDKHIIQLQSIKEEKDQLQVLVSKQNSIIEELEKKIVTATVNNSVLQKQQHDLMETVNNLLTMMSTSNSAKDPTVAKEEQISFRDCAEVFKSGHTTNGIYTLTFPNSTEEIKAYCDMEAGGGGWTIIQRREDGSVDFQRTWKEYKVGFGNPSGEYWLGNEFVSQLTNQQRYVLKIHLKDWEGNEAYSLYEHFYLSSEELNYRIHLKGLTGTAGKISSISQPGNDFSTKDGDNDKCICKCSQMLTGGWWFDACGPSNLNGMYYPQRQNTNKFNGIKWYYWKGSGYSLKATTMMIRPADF
Method: To verify molecular interaction of the bound assemblies, a competitive ELISA was performed. A 96-well MaxiSorp™ flat-bottom plate (Nunc) was coated with […] of hTie2-Fc (R&D Systems), which is a protein with the Fc of human IgG1 bound thereto. After that, the plate was washed five times with 0.05% (v/v) Tween-20-containing PBS (Phosphate Buffer Saline) and then blocked with 1% (v/v) BSA (Bovine serum albumin; Sigma)-containing PBS at a room temperature for 2 hours.
Thereafter, the plate was washed five times with 0.05% Tween-20-containing PBS and then, an HRP-conjugated anti-FLAG antibody (SIGMA) diluted in 1% (v/v) BSA-containing PBS at 1:5,000 ratio (v/v) was added in the amount of 100 μl (microliter) to each well to react at a room temperature for 1 hour, followed by washing five times with 0.1% (v/v) Tween-20-containing PBS. Finally, 100 μl (microliter) of TMB substrate (cell signal) was added to each well of the plate to induce color development at a room temperature for 3 min. Then, the reaction was ceased by the addition of 50 μl of 5N H₂SO₄ solution and OD450 values were measured on a plate reader (Molecular Devices).

Row | Binder | Kd [1] [nM] | IC50 (FLAG-Tagged hAng2) [nM]
1 | B1 | 5.1 | 18.9
2 | B2 | 37.8 | 9.9
3 | B3 | 28.6 | 6.5
4 | B4 | 11.7 | 36.3
5 | B5 | 8.7 | 39.7
6 | B6 | 23.8 | 10
7 | B7 | 20.7 | 6.6
